Experimental findings from US20240336672A1 are described below.

As a reminder, the IC50 is the concentration needed to halve the response being measured. A word on the EC50: it is the concentration giving half of the maximal effect.

Assay [1] concerns the target T1, SARS-CoV-2 delta variant B.1.617.2/3 RBD domain (SARS-CoV-2). Kind of assay: RBD-ACE2 competition ELISA. Also noted: unit not given beside the values. The settings on record: remark: other sources report otherwise. On the technique in general: An ELISA detects its analyte on a solid surface through an enzyme-linked reagent.
Assay [2] addresses T2, SARS-CoV-2 kappa variant B.1.617.1/3 RBD domain (SARS-CoV-2). Kind of assay: RBD-ACE2 competition ELISA. The settings on record: remark: other sources report otherwise. Set-up: unit not given beside the values.
Assay [3] has as its target SARS-CoV-2 delta plus variant RBD (SARS-CoV-2). Briefly: RBD-ACE2 competition ELISA. Set-up: unit not given beside the values. The settings on record: remark: other sources report otherwise.
Assay [4] concerns the target T3, SARS-CoV-2 omicron variant B.1.1.529 Spike ectodomain (tri-S, HexaPro) (SARS-CoV-2), P0DTC2. Briefly: tri-S/ACE2 blocking ELISA [B]. The settings on record: remark: other sources report otherwise.
Assay [5] has as its target T1, SARS-CoV-2 delta variant B.1.617.2/3 …. Kind of assay: ELISA. The settings on record: remark: other sources report otherwise. Also noted: unit not given beside the values.
Assay [6] deals with T2, SARS-CoV-2 kappa variant B.1.617.1/3 …. Briefly: ELISA. Also noted: unit not given beside the values. The settings on record: remark: other sources report otherwise.
The target of assay [7] is SARS-CoV-2 delta plus variant RBD (SARS-CoV-2). Briefly: ELISA. Set-up: unit not given beside the values. The settings on record: remark: other sources report otherwise.
The target of assay [8] is T3, SARS-CoV-2 omicron variant B.1.1.529 …. Kind of assay: ELISA. The settings on record: remark: other sources report otherwise. Set-up: unit not given beside the values.
Assay [9] deals with T4, SARS-CoV-2 omicron variant B.1.1.529 RBD domain (SARS-CoV-2). Briefly: ELISA. Set-up: unit not given beside the values. The settings on record: remark: other sources report otherwise.
The target of assay [10] is T1, SARS-CoV-2 delta variant B.1.617.2/3 …. Briefly: RBD-ACE2 competition ELISA [letter not given]. The settings on record: remark: other sources report otherwise.
Assay [11] has as its target T3, SARS-CoV-2 omicron variant B.1.1.529 …. The settings on record: remark: other sources report otherwise.
Assay [12] concerns the target T1, SARS-CoV-2 delta variant B.1.617.2/3 …. Briefly: ELISA. The settings on record: remark: other sources report otherwise.
Assay [13] concerns the target T2, SARS-CoV-2 kappa variant B.1.617.1/3 …. Briefly: ELISA. The settings on record: remark: other sources report otherwise.
Assay [14] addresses SARS-CoV-2 delta plus variant RBD (SARS-CoV-2). Briefly: ELISA. The settings on record: remark: other sources report otherwise.
Assay [15] has as its target T3, SARS-CoV-2 omicron variant B.1.1.529 …. Kind of assay: ELISA; unit from paragraph 452, none printed in the heatmap. The settings on record: remark: other sources report otherwise.
Assay [16] concerns the target T4, SARS-CoV-2 omicron variant B.1.1.529 …. The assay is described as above. The settings on record: remark: other sources report otherwise.
In assay [17] the target is ι (SARS-CoV-2). Kind of assay: flow cytometry (Mock 2.5). A general note: A flow cytometer gives signals particle by particle.
In assay [18] the target is κ (SARS-CoV-2). Kind of assay: flow cytometry (Mock 2.5).
Assay [19] has as its target SARS-CoV-2 δ variant spike protein, cell-expressed (SARS-CoV-2). Kind of assay: flow cytometry (Mock 2.5).
Assay [20] deals with α (SARS-CoV-2). Kind of assay: flow cytometry (Mock 2.5).
Assay [21] concerns the target ε (SARS-CoV-2). Kind of assay: flow cytometry (Mock 2.5).
Assay [22] deals with β (SARS-CoV-2). Kind of assay: flow cytometry (Mock 2.5).
Assay [23] deals with γ (SARS-CoV-2). Briefly: flow cytometry (Mock 2.5).

Where only a bound is given, the exact number is not on record here.

B1: Cv2.5213 (recombinant human IgG1) (antibody)
heavy: EVQLVESGGGLIQPGGSLRLSCAASGFTVSSNYMSWVRQAPGKGLEWVSLIYSGGSTYYADSVKGRFTISRDNSKNTLYLQMNSLRAEDTAVYYCARDLNYYGMDVWGQGATVTVSSASTKGPSVFPLAPSSKSTSGGTAALGCLVKDYFPEPVTVSWNSGALTSGVHTFPAVLQSSGLYSLSSVVTVPSSSLGTQTYICNVNHKPSNTKVDKKVEPKSCDKTHTCPPCPAPELLGGPSVFLFPPKPKDTLMISRTPEVTCVVVDVSHEDPEVKFNWYVDGVEVHNAKTKPREEQYNSTYRVVSVLTVLHQDWLNGKEYKCKVSNKALPAPIEKTISKAKQPREPQVYTLPPSRDELTKNQVSLTCLVKGFYPSDIAVEWESNGQPENNYKTTPPVLDSDGSFFLYSKLTVDKSRWQQGNVFSCSVMHEALHNHYTQKSLSLSPGK
light: not shown
In the case of B1, the figures for the AUC (RBD block.) in assay [1], in assay [2] and in assay [3] were 91, 150 and 33, respectively. Further, in [4], the AUC of blocking is 10. Further, the AUC (RBD bind.) in assay [5] was 13; in assay [6] it was 13; in [7] it was 12. Besides, the AUC in assay [8] amounted to 2; in [9], 1. This molecule gave an IC50 (read off the curve) in assay [10] of 1 µg/mL.

B2: Adintrevimab (antibody, V domains shown)
VH: EVQLVESGGGLVKPGGSLRLSCAASGFTFSSYYMNWVRQAPGKGLEWVSSISEDGYSTYYPDSLKGRFTISRDSAKNSLYLQMNSLRADDTAVYYCARDFSGHTAWAGTGFEYWGQGTLVTVSS
VL: QSVLTQPPSVSGAPGQRITISCTGSSSNIGAGYDVHWYQQLPGTAPKLLIYGSSSRNSGVPDRFSGSKSGTSASLAITGLQAEDEADYYCQSYDSSLSVLYTFGTGTKVTVL
Consider B2, for which the IC50 in assay [11] is above 2 µg/mL. Also, the OD405nm turned out to be 3.4 in assay [12], 3.6 in [13] and 3.4 in assay [14]. Also, the EC50 stood at 0.009 µg/mL in assay [15] and 0.056 µg/mL in assay [16].

B3: Imdevimab (antibody, V domains shown)
VH: QVQLVESGGGVVQPGRSLRLSCAASGFTFSNYAMYWVRQAPGKGLEWVAVISYDGSNKYYADSVKGRFTISRDNSKNTLYLQMNSLRTEDTAVYYCASGSDYGDYLLVYWGQGTLVTVSS
VL: QSALTQPASVSGSPGQSITISCTGTSSDVGGYNYVSWYQQHPGKAPKLMIYDVSKRPSGVSNRFSGSKSGNTASLTISGLQSEDEADYYCNSLTSISTWVFGGGTKLTVL
As to B3, the log10 ΔgMFI in assay [17] amounted to 4.9; in assay [18] it was 4.7; in [19], 4.5; in assay [20], 4.4; in assay [21], 4.5; in assay [22], 3.9. The log10 ΔgMFI in assay [23] was 4.6.
